Test results reported in PMC7353009, “Identification of Substrates of Cytoplasmic Peptidyl-Prolyl Cis/Trans Isomerases and Their Collective Essentiality in Escherichia Coli” (International Journal of Molecular Sciences, 2020).
Numbering of substitutions follows the chain as printed. Several values for one entry are separate records, joined by “and”; a condition that tells them apart may be missing. Equal values may be shown once.

T1: Hexa-His-tagged PpiC M57A (E. coli)
T1 chain: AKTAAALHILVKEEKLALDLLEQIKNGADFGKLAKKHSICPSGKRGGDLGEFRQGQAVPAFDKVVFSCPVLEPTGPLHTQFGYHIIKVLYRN

T2: Hexa-His-tagged PpiC F81A (E. coli)
T2 chain: T1 chain with A57M, F81A

T3: Hexa-His-tagged FkpB (wild type) (E. coli, UniProt P0AEM0 1-149)
T3 chain: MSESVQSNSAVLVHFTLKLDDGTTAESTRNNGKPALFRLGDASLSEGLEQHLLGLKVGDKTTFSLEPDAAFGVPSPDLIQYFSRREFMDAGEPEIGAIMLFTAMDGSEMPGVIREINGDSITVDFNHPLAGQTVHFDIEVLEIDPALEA

B1: RseA peptide Rse3 (peptide)
peptide: IIEEEPVRQPATL
notes: peptide from the conserved regions of the N-terminal domain of RseA, E. coli
B2: RpoE peptide P3 (peptide)
peptide: FRAREAIDNKVQPLIRR
notes: peptide covering conserved region 4 of RpoE, E. coli, including R178
B3: RseA peptide Rse1 (peptide, UniProt P0AFX7 2-29, looked up)
peptide: QKEQLSALMDGETLDSELLNELAHNPEM
notes: peptide corresponding to amino acid 2-29 of N-RseA (N-terminal domain of the anti-sigma factor RseA), E. coli
B4: Hexa-His-tagged PpiC (wild type) (enzyme, E. coli, UniProt P0A9L5 1-93, looked up)
chain: MAKTAAALHILVKEEKLALDLLEQIKNGADFGKLAKKHSICPSGKRGGDLGEFRQGQMVPAFDKVVFSCPVLEPTGPLHTQFGYHIIKVLYRN
notes: PpiC, parvulin peptidyl-prolyl cis/trans isomerase, E. coli; coding region of the ppiC gene in pET24b; The tag is called cleavable; also called wt PpiC; wild-type PpiC; source: E. coli T7 express derivative lacking all six PPIs (SR21984), IPTG-induced; in lysate on Ni-NTA for co-elution; purified (Ni-NTA) for ITC; not shown: His6, C-terminal, kept
B5: Hexa-His-tagged FkpB (wild type) (enzyme, E. coli, UniProt P0AEM0 1-149, looked up)
chain: T3 chain
notes: FkpB, FKBP-type peptidyl-prolyl cis/trans isomerase, E. coli; minimal coding region of the fkpB gene in pET24b; also called wild-type FkpB; source: E. coli T7 express derivative lacking all six PPIs (SR21984), IPTG-induced; in lysate on Ni-NTA for co-elution; purified (Ni-NTA) for ITC; not shown: His6, C-terminal, kept
B6: RpoE peptide P2 (peptide)
peptide: KVASLVSRYVPSGDV
notes: peptide derived from conserved region 2 of RpoE, E. coli
B7: RpoE peptide P4 (peptide)
peptide: AAIMDCPVGTVRSRI
notes: peptide derived from conserved region 4 of RpoE, E. coli
B8: S2-derived peptide (peptide)
chain: TRYWNPKMKPFIFGA
modifications: This paper prints neither letters nor limits. Limits 20-34 are recalled from the SlyD/FKBP S2 peptide of the cited work (ref. 12), as are the check residues. Terminal modifications unknown.
B9: AhpC-derived peptide (peptide)
peptide: RATFVVDPQGI
notes: peptide from AhpC (alkyl hydroperoxide reductase subunit C), E. coli; also called AhpC peptide
B10: RpoE peptide P1 (peptide)
peptide: YLVAQGRRPPSSDVD
notes: peptide corresponding to the C-terminal end of conserved region 2.4 of RpoE, E. coli

Key:
[1] = target: B5; test: ITC; Nano ITC; 200 μM peptide in the cell titrated with 2 mM protein, 25 injections of 2 μL, 20 °C, 20 mM sodium phosphate pH 7.5, 100 mM NaCl; 1:1 binding model; conditions: both partners purified
AhpC-derived peptide = target: B9; test: as above; conditions: both partners purified
RseA peptide Rse1 = target: B3; test: as above; conditions: both partners purified
RseA peptide Rse3 = target: B1; test: as above; conditions: both partners purified
[2] = target: B4; test: as above; conditions: both partners purified
[3] = target: T1, Hexa-His-tagged PpiC M57A; test: ITC
[4] = target: T2, Hexa-His-tagged PpiC F81A; test: ITC
[5] = target: T3, Hexa-His-tagged FkpB (wild type); test: ITC

## B1
[1]
  Kd: 13 µM

## B2
[1]
  Kd: 19 µM

## B3
[1]
  Kd: 15.1 µM

## B4
AhpC-derived peptide
  stoichiometry N: 0.99

## B5
AhpC-derived peptide
  stoichiometry N: 0.99
RseA peptide Rse1
  dH: -2.18 kcal/mol
  stoichiometry N: 1
RseA peptide Rse3
  dH: -1.48 kcal/mol

## B6
[1]
  Kd: 10.7 µM

## B7
[1]
  Kd: 10.3 µM

## B8
[1]
  Kd: 18.8 µM

## B9
[1]
  Kd: 47 µM
[2]
  Kd: 30 µM and 47.4 µM
[3]
  Kd: 68.8 µM
[4]
  Kd: 77.6 µM
[5]
  Kd: 30.3 µM

## B10
[1]
  Kd: 38.1 µM
